A short description of the series: soluble on expression in E. coli; label from the status in PepcDB or PDB records.
Regarding “MSLDHTYVFAVGGLDEVGKNSYAIEHNEETIMVDYGIKFASSDLLGINGIVANTSYFVENNRPIDALLLTHGHEDHIGGIPYLLQTTEVKKIYAPLLATELIKRRLSEFRDIKYNPEIIPFGDDSKVSTKYFEVDFFRVCHSIPDSFGMCIKTPNGRIVSAGDYRYDFGKDTDDTNIHKLVEMSNRGIDIFLSESTNSDQPGFSPSEDNIINNIETLIKNSKGRVFVATFASNLGRIEKIIERAIKSGRRVCIMGRSMEANIKTSKKLGYLKISESDFLTTKELNECKDREILVVLTGSQGEEMAALNQMALGKHPRLSLKPSDSIIMSSNPIPGNFKSVELLINRLYKQGVNMYTNSPNFRIHSSGHATIQELQMMFKILKPKYLIPIHGESKMLSAMKRNANSIGINPENVFVLTNGLKVELKDHNLKLTNQRIDACPIYIDKKVASKSTTDLINKRKLLSEEGIFNIIVLIDHKNKKVVKNPMLSTRGCFYAKDSSSLITKISFSVKDEIESLLNKEAEASKEKIKQAVANVVKFYVWKNKKKNPIVTTTVFDIEGHHHHHH”, the “soluble on expression in E. coli” value was “not soluble”. With “MKREQVMGEGNYSLASHHIFGVDNANKMLFSPLDNAKNGMKIYLTDKNKVYTYEIREVKRVTPDRVDEVDDRDGVNEITLVTCEDLAATERIIVKGDLKETKDYSQTSNEILTAFNQPYKQFY” the entry was “not soluble”. As for “MGSDKIHHHHHHVYTSFYGFKAKPFQLSPDPSFFFGSKGHNRAMAYLEYGLAQAEGFIVVTGEVGAGKTTLVRNLFRQLEPEKIVAAQIVNTSLDSDDTLRMVAAAFGLPLAQGNPGKTPVLVALEKFFRQCEQQGKRALLVVDEAQNLSPQTVEELRMLSNFQGDNKSLLQTFLLGQPEFRKTLLGNDMQQLRQRITATYHLGPMDRAETKSYIEHRLKTVGWGGNPGFDEEAFDAIHQYTGGIPRRINALCDRLLLMGYLEKLQHFGVSEVNEVIRDIQQEFDAVEVEAGLLSGDKTSPLKEEQFAIGLEEMSNRIAKLEETVVSLMGLLKQILSLADVNKRLR”, the “soluble on expression in E. coli” value is listed as “not soluble”. With “MAPPNGTTNGETEVATQGSYTAVSTGRKTTMHRLIEEHGSVLMPGVQDALSAAVVEKTGFHAAFVSGYSVSAAMLGLPDFGLLTTTEVVEATRRITAAAPNLCVVVDGDTGGGGPLNVQRFIRELISAGAKGVFLEDQVWPKKCGHMRGKAVVPAEEHALKIAAAREAIGDSDFFLVARTDARAPHGLEEGIRRANLYKEAGADATFVEAPANVDELKEVSAKTKGLRIANMIEGGKTPLHTPEEFKEMGFHLIAHSLTAVYATARALVNIMKILKEKGTTRDDLDQMATFSEFNELISLESWYEMESKFKNFTPKAT” the entry was “soluble”; with “MLKFRTVHGGLRLLGIRRTSTAPAASPNVRRLEYKPIKKVMVANRGEIAIRVFRACTELGIRTVAIYSEQDTGQMHRQKADEAYLIGRGLAPVQAYLHIPDIIKVAKENNVDAVHPGYGFLSERADFAQACQDAGVRFIGPSPEVVRKMGDKVEARAIAIAAGVPVVPGTDAPITSLHEAHEFSNTYGFPIIFKAAYGGGGRGMRVVHSYEELEENYTRAYSEALAAFGNGALFVEKFIEKPRHIEVQILGDQYGNILHLYERDCSIQRRHQKVVEIAPAAHLDPQLRTRLTSDSVKLAKQVGYENAGTVEFLVDRHGKHYFIEVNSRLQVEHTVTEEITDVDLVHAQIHVAEGRSLPDLGLRQENIRINGCAIQCRVTTEDPARSFQPDTGRIEVFRSGEGMGIRLDNASAFQGAVISPHYDSLLVKVIAHGKDHPTAATKMSRALAEFRVRGVKTNIAFLQNVLNNQQFLAGTVDTQFIDENPELFQLRPAQNRAQKLLHYLGHVMVNGPTTPIPVKASPSPTDPVVPAVPIGPPPAGFRDILLREGPEGFARAVRNHPGLLLMDTTFRDAHQSLLATRVRTHDLKKIAPYVAHNFSKLFSMENWGGATFDVAMRFLYECPWRRLQELRELIPNIPFQMLLRGANAVGYTNYPDNVVFKFCEVAKENGMDVFRVFDSLNYLPNMLLGMEAAGSAGGVVEAAISYTGDVADPSRTKYSLQYYMGLAEELVRAGTHILCIKDMAGLLKPTACTMLVSSLRDRFPDLPLHIHTHDTSGAGVAAMLACAQAGADVVDVAADSMSGMTSQPSMGALVACTRGTPLDTEVPMERVFDYSEYWEGARGLYAAFDCTATMKSGNSDVYENEIPGGQYTNLHFQAHSMGLGSKFKEVKKAYVEANQMLGDLIKVTPSSKIVGDLAQFMVQNGLSRAEAEAQAEELSFPRSVVEFLQGYIGVPHGGFPEPFRSKVLKDLPRVEGRPGASLPPLDLQALEKELVDRHGEEVTPEDVLSAAMYPDVFAHFKDFTATFGPLDSLNTRLFLQGPKIAEEFEVELERGKTLHIKALAVSDLNRAGQRQVFFELNGQLRSILVKDTQAMKEMHFHPKALKDVKGQIGAPMPGKVIDIKVVAGAKVAKGQPLCVLSAMKMETVVTSPMEGTVRKVHVTKDMTLEGDDLILEIE”, “soluble”. To “MGSDKIHHHHHHMNESSTHDSVADDPTEVSTDTVLDIALSLFSELGFSDAKLEAIAKKSGMSKRMIHYHFGDKRGLYICCLEEAVRRLRPTAEEMYLASAVPVEGVRTIVEAVFHRYVQHPEAVRMLQMENLHHYGKVAEASPLSDQSAITLQLDRLLMLGQDAGAFRPGISAQDVFTLIASIAVFRINSRSTTLNLYGIDMMNGDNTDGMRRMAVDTVLAFLTSNLKSADEDSYLSRPLLSTVTEHVDEEGSYEVAADPFS” belongs “not soluble”; to “MSLKHYQRINELEEKKIKLRERPVIDELSKVKKLKLTGQTEALFESWRSSWDEIETRLFPDLEEVLLEAEMNTDRYKFRSATHAENDIEQMLVVIEKQMDQILGGLKELLISEEKNAKESRATKEKFAELRREVLTRGFKLGETLPYIETKLSELSESLNSYDSLTDQGDHLEAREIVIVVQKEMQVIEAQMERIPSLLHETDTILPEEMTKLRAGYEEMVRKGYYLAQMELDKEISRMKNQIDKMKKNVINLDLDEAEQGVEELHNEIDLFYDTLEHEAEARHFVKENHSPTSDKLQRQNAVSDALAEQITEVKQTYHVAEDDLAVYLKTSAKLSEAKENFEQLTALIASGEIAYSAAQDTLKEIDAALITISAEQDKFAEELRSLRKDELEARDDAERMRRAIITLDRKMERERLPGLPEEYLSLREHMGESINALEKRLEEKPLNMKAVSQDWRIAEEDLTHLTEKAEEMMENVRLVEHVIQYANRYRLRNKELADELVQAENHFYNDYQYKKALEIAVTALEKVETGAFKKVEKAYESKVSVDEGHHHHHH”, “soluble”. “MGSDKIHHHHHHMADKGIIFSDAMVRALLDGTKTQTRRLCAWPNNPNTPQLTYIVACDEPGWFGDEEGEVQFRVPHAQGDRLYVREAWSVRGTYTDVVEVGYRASANRSHTEFVEQWPVGDAIPGKGSWPQWPKYGPSIHMPRWASRMWLQITDVRVQRLQEISAADCRAEGLERGAVGGLLPAYRGSADLEWRIYADDAYHDLWDSLHGESGTRWADNPWVTVYTFDVHKGNIGKAARG”: the “soluble on expression in E. coli” value was “not soluble”.

In the case of “MALPKFELLSLADNTVGWGPLASSSSADEPVPFQQFNKADRIGRVADWIGVDRFYRRGNERYNERVYGSAANAGSQFDYIHGMDEHNFQLVDTSKPMARNPQRNFRVRQMHLRKMMQKENEKREMVNQSTNLRMKRSIAKEQQRAFKMWQRRGGNARQGQRGQGGRFGGDRPKERLPSVQVRPEWVVLEEMNLSAFSKLALPNIPGGDDIGDHQYGSLQYYDKTIDRVSVKNSIPLQRCAGVFYNVTTTEDPVIQELAQGGAGNVFGTDIILATLMTAPRSVYSWDIVAYRVGDKLFFDKRNTRDILNPVETLTVSETSAEPPSFDGNGINNAKDLATEAFYINQNFRRQVVKRNDAGFTFKNARAPFEDEETGESGTAYKYRKWNLGNGVDGKPVELVCRTELDGVIHGLGNETQTLTIKAFNEWDSTQSGGVDWRTKLDVQKGAVMATEIKNNSAKVAKWTLQALLAGSDTMKLGYVSRNNARSTQNHSILLTQYVKPTEFASNIALNMDNCWGILRCVIDSCMKQKPGKYLLMKDPQSPVIRLYSLPEGTFESERESSDEENSDDDQ”, the “soluble on expression in E. coli” value was “not soluble”. To “MAHHHHHHMGFPAVPFVEDKNDAEILRDEADDEFASYFKEGRKPKILITTGEHPCFRTKLFVKEALWLFPNSIYRPRKKYNLKEITQFCINREFTDLIVVTDRLKEPYNLIISHLPEGPTAMFRVSNFMTHAQLKDPAPRTEHYPELIFKNFDTRLGRRINRLLECLFPATRDYEGRAVATFHNQRDYIFMRTHRYIFDSLDAVRIQEMGPRFTLRLLSLQSGTFDTQFGEYEWFRKKEHDDDKLEWYL” belongs “soluble”; to “MDLVDKRDVLIGDFRPSLGFYGGVRVGVYLDTTEPKHAKIKGFAMETLKRSSKVWLQELRSNLNIFWGTIESEISKNGAASYIFPLQRCIFSFLCASLAGVDASVSPDIAENGWKTINTWLALQVIPTAKLGVVPQPLEEILLHTWPYPSLLIAGNYKKLYNFIDENAGDCLRLGQEEFGLTRDEAIQNLLFVLGFNAYGGFSVFLPSLIGRITGDNSGLQERIRTEVRRVCGSGSDLNFKTVNEMELVKSVVYETLRFSPPVPLQFARARKDFQISSHDAVFEVKKGELLCGYQPLVMRDANVFDEPEEFKPDRYVGETGSELLNYLYWSNGPQTGTPSASNKQCAAKDIVTLTASLLVADLFLRYDTITGDSGSIKAVVKAK”, “soluble”; to “MSLNKRKGILAIGAHPDDIELGCGASLARLAQKGIYIATVVMTTGNSGVDGIIDRHEESRNALKILGCHQTIHLNFADTRAHLQLNDMISALENIIKNQIPSDVEIIRVYTMHDADRHQDHLAVYQASMVACRAIPQILGYETPSTWLSFMPQVFESVKEEYFSLKLTALKKHKSQSQRDYMRPERLRAVAQFRGQQVNSDLGEGFVIHKMILEGHHHHHH”, “not soluble”. To “MQKVESIIIGGGPCGLSAAIEQKRKGIDTLIIEKGNVVESIYNYPTHQTFFSSSDKLSIGDVPFIVEESKPRRNQALVYYREVVKHHQLKVNAFEEVLTVKKMNNKFTITTTKDVYECRFLTIATGYYGQHNTLEVEGADLPKVFHYFKEAHPYFDQDVVIIGGKNSAIDAALELEKAGANVTVLYRGGDYSPSIKPWILPNFTALVNHEKIDMEFNANVTQITEDTVTYEVNGESKTIHNDYVFAMIGYHPDYEFLKSVGIQINTNEFGTAPMYNKETYETNIENCYIAGVIAAGNDANTIFIENGKFHGGIIAQNMLAKKQTPLES” belongs “soluble”.

With “MSLKICVIGSSGHFRYALEGLDEECSITGIAPGVPEEDLSKLEKAISEMNIKPKKYNNWWEMLEKEKPDILVINTVFSLNGKILLEALERKIHAFVEKPIATTFEDLEKIRSVYQKVRNEVFFTAMFGIRYRPHFLTAKKLVSEGAVGEIRLVNTQKSYKLGQRPDFYKKRETYGGTIPWVGIHAIDWIHWITGKKFLSVYATHSRLHNSGHGELETTALCHFTLENEVFASLSIDYLRPQGAPTHDDDRMRIVGTRGIVEVINERVFLTDEKGHREVPLVEKGQIFEDFLREIRGQGKCMVTPEDSILTTEIALKARLSADTGQIVLIEGHHHHHH”, the “soluble on expression in E. coli” value is “soluble”.

As to “MSLTIDRIRALVSEDFNAVNNLIIDKIQSQVGLIQDLSQHIVESGGKRLRPLVVLLASNACGYKGKDHISLAAMVEFFHTATLLHDDVIDESTLRRGRQTANSIWGSKASVLVGDYLFTQSVNLMVEVGIKEILNLLANTSHQITCGEVKQLANRHNPALTLDDYFDVIRAKTALLFAAAACIGPILTNAPIELRNSLYNYGLHLGNAFQLIDDALDYCSDAATLGKNIGDDLADGKATLPLIHALQNGNATQQQQIRESLMKGSLSHLPDILIAIEQTEAIPFTKRIAAQEVDSALSALEILPDSVYKEALVDLAKFALERNYEGHHHHHH”, the “soluble on expression in E. coli” value is given as “soluble”. To “MDRFMAGDLEVRCEVIYRRVKNPRIELRFDSLRLILPADFTGDPMEVLSSRSDWIQRKIHEFHEMLERASDMELEYRRDKELRSLVSGFLDHYSDVLGVEYGRVRFRRMRSRWGSCSSRGNLSFNTLLSHLPDRMVEYVVLHELAHLREMNHSPRFWGILESEMPDCTERRRMLRYYWARLYMEGLVDLEHHHHHH” belongs “soluble”.
